Results published in the nanobody polyreactivity screen of Harvey et al. (2022).

Experiment: yeast display, Sf9 membrane polyspecificity reagent, FACS + sequencing; frameworks hold sequencing errors
In short: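 Galactose induction of a Saccharomyces cerevisiae BJ5465 synthetic nanobody display library ran 36–48 hours. The cells were then stained for 1 hour at 4 °C with 10% biotinylated, detergent-solubilized Sf9 membrane reagent, pulled down on streptavidin microbeads and FACS-sorted into low and high (top ~1%) gates on expression and reagent-binding fluorescence. Labels for polyreactivity follow the gate of origin.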

Sequence	polyreactivity (PSR sort gate)
QVQLVESGGGLVQAGGSLRLSCAASGFIFYNYAMGWYRQAPGKERELVAAITGGGSTNYADSVKGRFTISRDNAKNTVYLQMNSLKPEDTAVYYCAAEEGPPWSRYDYWGQGTQVTVSS	low polyreactivity
QVQLVESGGGLVQAGGSLRLSCAASGRTFYYYAMGWYRQAPGTERELLAAISWSVGRTYYADSVKGRFTISRDNAKNTVYLQMNSLKPEDTAVYFCNAEPPRGYTVSSGREMVYWGQGTQVTGSS	low polyreactivity
QVQLVESGVGLVQAGGSLPLSCAASGRTFRYYTMGSYRQAPGKERELVAAITQSGDSTYYADSVKGRFTISRDNAKNTFYLQMNSLKPEDTAVYYCNKAWRRRGLYDYWGQGTQVTVSS	high polyreactivity
QVHLVESGGGLVQAGGSLRLSCAASGLTFAWSAMGWYRPAPGKEREWVAAITSSGSRTYYADSVKGRFTISRDNAKNTVYLQMNSLKPEDTAVYYCAAPSRYRPTKGYPYYYWGQGTQVTVSS	high polyreactivity
QVQLVESGGGLVQAGGSLRLSCAASGSTFIWNAMGWYRQAPGKVRELVAAISSGGSTYYADSVKGRFTISRDNAKNTVYLQMNSLKPEDTAVYYCAAEYVYNVSEQRYAVYSTDDYWGQGSQVTVSS	low polyreactivity
QVQLVESGGGLVQAGGSLRLSCAASGITFYSNAMGWYRPAPGKERELVAAISYRGGSTYYADSVKGRFTISRDNAKNTVYLQMNSLKPEDTAVYYCNKEVDWGWGRISYDSWGQGTQVTVSS	low polyreactivity
QVQLVESGGGLVQAGGSLRLSCAASGSTFRHYAMGWYRQAPGKERELVAVISWGGTSTYYADSVKGRFTISRDNAKNTVYLQMKSLKPEDTAVYYCNKAYFPIFKGYEMYYWGQGTQVTVSS	low polyreactivity
QVQLVESGGGLVQAGGSLRLSCAASGRTFRSNTKGGYRQAPGKERELVAAISWSGTRTYYADSVKGRFTISRDNAKNSVYLQMNSLKPEDTAVYYCNAVGFDQPRYYYWGQGTQVTVSS	high polyreactivity
QVQLVESGGGIDQAGGSLRLRCAASGSIFAYYAMGWYRQAPGKERELVAAISWNGGRTYYADSVKGRFTISRDNAKNTVYLQMNSLKPEDTAVYYCNAVRWAIYDYWGQGTQVTLSS	high polyreactivity
QVQLVESGGGLVHAGGSHRLSCAASGRTFPGYPMGWYIPAPGTERELVAGISYRGGSTYFADSVKGRFTISRDNAKNTVYLQMNSLKPEDTAVYFCARDYSRHKGDYWGQGTQGTVSS	low polyreactivity
QVQLVESGGGLVQAGGSLRLSSAASGSIFRIYAMGWYRQAPGKERELVAAMSSGGSTYYADSVKGRFTISRDNAKNTVYLQMNSLKPEDTAVYYCAAYPEYVSGAWYDYWGQGTQVTLSS	low polyreactivity
QVQLVESGGGLVQAGGSLRLSCAASGRIFGHNSMGWSRQPPWKEMELVATISSGVRTNYADSVKGRFTISRDNAKNTVYLQMNSLKPEDTAVYYCATKTYQFGYSSYYYWGQGTQVTVSS	high polyreactivity
QVQLVESGGGLVQAGGSLRLSCAASVRTFYYYAMGWYRQAPGKERELVARISRGGSTNYADSVKGRFTISRDNAKNTVYLLMNSLKTEDTAVYYCAKSISYTGRYWGYDYWGQGTQVTVSS	high polyreactivity
QVQLVESGGGLVQAGGSLRLSCAASGFIFPPYDMGWYRQAPGKERELVAGISDVGTTYYADSVKGRYTISRDNAKNPVYLQMNSLKPEDSAVYYCAAESQGDDQFWTGGYDSWGQGTQVTVSS	low polyreactivity
QVQLVESGGGLVQAGGSLRLSCAASGSIIGTYAMGWYRQAPGKERELVAAISSSGGRTYYADSVKGRFTISRDNAKNTVYLQMNILKTEYTAVYYCNTRPGTVFRAGGDYWGQGTQVTVSS	high polyreactivity
QVQLVESGGGLVQAGGSLRLSCAASGFILDTYGMGWYRQAPGKERELVAAISQSDVSTYYADSVKGRFTISRDNAKNTVYLQMNSLKQEDTAVYYCAADRGGLRWFWQVVYDYWGQGTQVTVSS	low polyreactivity

Sequence	polyreactivity (PSR sort gate)
QVQLVESGGGLVQAGGSLRLSCAASGRSLRGYAMGWYRQAPGKERELVAAISRRGGSTRYADSVKGRFTISRDNAKNTVYLQMNSLKPEDTAVYYCAAPDFPKYYPTAYLQADEYWGQGTQVTVSS	high polyreactivity
QVQLVESGGGLVQAGGSLRLSCAASGFTSAPYAMGWYRQAPGKERELVAAISSGDTTSYADSVKGRFTISRDNAKNTVYLQMNSLKPEDTAVYYCAAVYFNVIESYKTAGYDYWGQGTQVTVSS	low polyreactivity
QVQLVESAGGLVQAGGILRLSCAASGITIYRYAMGWYRQAPGKERELVADISSGGGTTYYADSVKGRFTISRYNAKNTVYLQMNSQKPEDTAVYYCAADYGFRYPLYDYWGQGTQVTVSS	low polyreactivity
QVQLVESGGGLVQAGGSLRLSCAASGSNFDPNAMGWYRQAPGKERELVAAISWSGGSTYYADSVKGRFTISRDNAKNTVYLQMNSLKPEDTAVSYCNAQFYDSYSYTNDDWGQGTLVTVSS	low polyreactivity
QVQLHESGGGLVQAGGSQRLSCASSGYIFYFQYMGWYRQAPGKEREFVAAISDGANTNYADSVKGRFTISRDNAKNTEYLQMNSLKPEDTAVYYCNADQYYWYEYDYWGQGTQVTVSS	low polyreactivity
QVQLVESGGGLVQAGGSLRLSCAASGYTFRGYAMGWYRQAPGKERELVAAISWSGGRTYYADSVKVRFTISRDNAKNTVYLQMNSLKPEDTAVYYCDAETHVGWPAKFDYWGQGTQVTVSS	high polyreactivity
QVQLVESGGGLVQAGGSLRLICAASGSTFRWNALRWYRQAPGKERELVAAITWSGGSTYYADSVKVRFTISRDNAKNTVYVQMNSLKPEDTAVYYCNACGLFQYDSWGQGTKVTVSS	low polyreactivity
QVQLVESGGGVVQAGGSIRLSCAASGRIFTSNAMGWNRQAPGKETELDAAISGSGGRTYYADSVKGRFTISRDNAKNTVYLQMNSLKPEDTAVYDCNARYYTSGIAYSYYYWGQGTQGTVSS	high polyreactivity
QVQLVESGGGLVQAGGSLRLSCAASGSIFSSYAMGWYRQAPGKEREFVAAISWGGGSTYYADSVKGRFTISRDNAKNSVYLQMNSLKPEDTAVYYCAVETWLYPYDYWGQGTQVTVSS	high polyreactivity
QVQLVESGGGLVQAGGSLRLSCAASGLIFYAYAMGWYRPAPGKERELVAAITSGSGTNYADSVKGRFTISRDNAKNTVYLQMNSLKPEDTAVYYCNAETYGLVPYYIYHYDFDYWGQVTQVTVSS	high polyreactivity
QVQLVESGGGLVQAGGSLRLSCAASGRIFYFYAIGWYRQAPGKERELVASITSAGSTYYADSVKGRFTISRDNAKNTVYLQMNSLKPADTAVYYCARVRWGSRGGYIAYYGGGYWGQGTQVTVSS	high polyreactivity
QVQLVESGGGLVQAGGSLRLSCAASGRILTYYAMGWYRQAPGKERELVAAISWRAGYTYYADSVKGRFTISRDNAKNTVYLQMNSLKPEDTAVYYCAAETSNRGRRYYYWGQGTQVTVSS	high polyreactivity
QVQLVESGGGLVQAGGSLRLSCAASGLTFTPYTMGWYRQAPGKERELVAAITSSAARTYYADSVKGRFTISRDKAKNTVYFQMNSLKPEDTAVYYCNRYRLPSGRYEYWGQGTQVTVSS	high polyreactivity
QVQLVESGGGLVQAGGSLRLSCAASGYIFGGYAMGWYRQATGKERELVPGISIGVGSTYYADSVKGRFTISRDNAKNTVYLQMNSLKPEDSAVYYCNRVSVGYDYWGQGTQVTVSS	low polyreactivity
QVQLVESGGGLVQAGGSLRLSCAASGVIFKAYAMGWYRPAPGKERELVAAITSSGGRTYYADSVKGRFTISRDNAKNTVYLQMNSLKPEDSAVYYCNARGVLRTSLYRYDYWGQGTQLTVSS	high polyreactivity
